Results as given in US20240101981A1 (LINNO PHARMACEUTICALS, published 2024).

Biological target: T1, human transferrin (human, UniProt P02787 20-698)
T1 construct: mature; also called hTf; native human transferrin
Assay: ELISA, biotinylated human transferrin on streptavidin plate, anti-hARSA detection
Procedure: A 96-well plate was coated with streptavidin (0.1 μg/mL, 100 μL/well) and incubated overnight at 4° C.; after washing the plate three times with buffer PBST, the 96-well plate was blocked with 200 μL of PBST containing 1% bovine serum albumin (BSA) for 1 hour at room temperature. The plate was then washed three times with PBST, added with biotinylated human transferrin (1 μg/mL, 100 μL/well) and incubated at room temperature for 1 hour. […] The plate was then washed three times with PBST, added with goat anti-hARSA antibody (R&D, AF2485) (100 μL/well) at a concentration of 0.125 ug/mL to each well and incubated at room temperature for 1 hour. The plate was then washed three times with PBST, added with 100 μL anti-goat IgG-HRP to each well and incubated at room temperature for 0.5 hour, followed by the same washing steps aforementioned. The plate was then added with 100 μL/well of TMB substrate solution and incubated at room temperature for 15 minutes. The reaction was then stopped by adding 100 μL/well of the stop solution, and the absorbance was read at 450 nm using an ELISA reader.

T1 sequence (P02787 20-698): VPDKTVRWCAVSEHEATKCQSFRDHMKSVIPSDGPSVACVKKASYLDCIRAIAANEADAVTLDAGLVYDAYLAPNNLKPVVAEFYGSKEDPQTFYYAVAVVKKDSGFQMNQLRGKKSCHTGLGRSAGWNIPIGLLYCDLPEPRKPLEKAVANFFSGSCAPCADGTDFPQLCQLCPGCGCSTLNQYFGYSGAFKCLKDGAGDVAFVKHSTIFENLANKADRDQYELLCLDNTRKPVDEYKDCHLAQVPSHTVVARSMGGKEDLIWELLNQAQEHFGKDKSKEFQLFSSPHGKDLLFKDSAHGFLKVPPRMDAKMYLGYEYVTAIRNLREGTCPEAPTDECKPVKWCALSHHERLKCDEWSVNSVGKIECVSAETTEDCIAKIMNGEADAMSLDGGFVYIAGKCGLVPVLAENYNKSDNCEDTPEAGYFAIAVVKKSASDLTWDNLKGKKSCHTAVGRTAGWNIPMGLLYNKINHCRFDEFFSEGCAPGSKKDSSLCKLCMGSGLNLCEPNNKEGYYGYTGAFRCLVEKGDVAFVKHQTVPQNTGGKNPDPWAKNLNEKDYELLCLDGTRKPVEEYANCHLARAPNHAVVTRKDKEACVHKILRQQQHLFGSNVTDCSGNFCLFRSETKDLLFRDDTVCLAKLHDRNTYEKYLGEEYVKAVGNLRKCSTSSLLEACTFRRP

Row | binding result | Binder
1 | no binding | hARSA (enzyme, Control enzyme without the VHH; also called rhARSA; hARSA-his) RPPNIVLIFADDLGYGDLGCYGHPSSTTPNLDQLAAGGLRFTDFYVPVSLCTPSRAALLTGRLPVRMGMYPGVLVPSSRGGLPLEEVTVAEVLAARGYLTGMAGKWHLGVGPEGAFLPPHQGFHRFLGIPYSHDQGPCQNLTCFPPATPCDGGCDQGLVPIPLLANLSVEAQPPWLPGLEARYMAFAHDLMADAQRQDRPFFLYYASHHTHYPQFSGQSFAERSGRGPFGDSLMELDAAVGTLMTAIGDLGLLEETLVIFTADNGPETMRMSRGGCSGLLRCGKGTTYEGGVREPALAFWPGHIAPGVTHELASSLDLLPTLAALAGAPLPNVTLDGFDLSPLLLGTGKSPRQSLFFYPSYPDEVRGVFAVRTGKYKAHFFTQGSAHSDTTADPACHASSSLTAHEPPLLYDLSKDPGENYNLLGGVAGATPEVLQALKQLQLLKAQLDAAVTFGPSQVARGEDPALQICCHPGCTPRPACCHCPDPHA
2 | binds | hARSA-9056VHH-his (other, Expressed in HEK293F cells) RPPNIVLIFADDLGYGDLGCYGHPSSTTPNLDQLAAGGLRFTDFYVPVSLCTPSRAALLTGRLPVRMGMYPGVLVPSSRGGLPLEEVTVAEVLAARGYLTGMAGKWHLGVGPEGAFLPPHQGFHRFLGIPYSHDQGPCQNLTCFPPATPCDGGCDQGLVPIPLLANLSVEAQPPWLPGLEARYMAFAHDLMADAQRQDRPFFLYYASHHTHYPQFSGQSFAERSGRGPFGDSLMELDAAVGTLMTAIGDLGLLEETLVIFTADNGPETMRMSRGGCSGLLRCGKGTTYEGGVREPALAFWPGHIAPGVTHELASSLDLLPTLAALAGAPLPNVTLDGFDLSPLLLGTGKSPRQSLFFYPSYPDEVRGVFAVRTGKYKAHFFTQGSAHSDTTADPACHASSSLTAHEPPLLYDLSKDPGENYNLLGGVAGATPEVLQALKQLQLLKAQLDAAVTFGPSQVARGEDPALQICCHPGCTPRPACCHCPDPHAGGGGSGGGGSGGGGSEVQLVESGGGLVQPGGSLRLSCAASGHAYGGNYMGWFRQAPGKGLEGVAVLYTGGGSTYYADSVKGRFTISEDNSKNTVYLQMNSLRAEDTAVYYCALALGSARWYTSSLDARAYNIWGQGTLVTVSSGGGGSHHHHHH
